Test results published in US20220073617A1 (Five Prime, published 2022).
Changes are numbered by the printed parent chain. Numbers in names are those of the source. Where “and” joins values, the source holds several entries; their conditions need not be identical. Identical values can stand only once.

B1: P1-064391 (41F11_HC_Mutant: D31E/Y50W/S55E/Y100E 41F11_LC_Mutant: V29D/A64G/R91T) (antibody, V domains shown)
VH: QVQLVESGGGLVKPGGSLRLSCAASGFTFSEYYMSWIRQAPGKGLEWVSWISNSGEPIYYADSVKGRFTISRDNAKNSLYLQMNSLRAEDTAVYYCARDLPGWEFDLWGRGTLVTVSS
VL: EIVLTQSPATLSLSPGERATLSCRASQSDSSYLAWYQQKPGQAPRLLIYDASNRATGIPARFSGSGSGTDFTLTISSLEPEDFAVYYCQQTNNWPRTFGQGTKVEIK
notes: Kabat positions; also called P1-064391-1
B2: P1-064392 (41F11_HC_Mutant: D31E/Y50W/S55E/Y100E 41F11_LC_Mutant: V29D/A64G/Q89E/R91T) (antibody, V domains shown)
VH: B1 VH
VL: B1 VL with Q89E
notes: Kabat positions; also called P1-064392-1
B3: P1-064510 (41F11_Vk_A25E/V29D/A64G/R91T) (antibody, V domains shown)
VH: B1 VH with E31D, W50Y, E56S, E104Y
VL: B1 VL with A25E
notes: also called P1-064510-1
B4: P1-065326 (41F11_VH_D31E/Y50W/S55E/L96E/Y100E VK_A64G) (antibody, V domains shown)
VH: B1 VH with L100E
VL: B1 VL with D29V, T91R
notes: Kabat positions; also called P1-065326-1
B5: P1-061528 (41F11 NGS mut VK_A64G/R91A) (antibody, V domains shown)
VH: B1 VH with E31D, W50Y, E56S, E104Y
VL: B1 VL with D29V, T91A
notes: also called P1-061528-2
B6: P1-063001 (41F11_LC_Mutant: V29D/A64G/R91T) (antibody, V domains shown)
VH: B1 VH with E31D, W50Y, E56S, E104Y
VL: B1 VL
notes: also called P1-063001-5; P1-063001-6
B7: P1-063125 (41F11_HC_Mutant: T28P/Y50W/S55E/Y100E) (antibody, V domains shown)
VH: B1 VH with T28P, E31D
VL: B1 VL with D29V, G64A, T91R
notes: Kabat positions; also called P1-063125-5
B8: P1-063153 (41F11_HC_mutant: D31E/Y50W/S55E/Y100E) (antibody, V domains shown)
VH: B1 VH
VL: B1 VL with D29V, G64A, T91R
notes: Kabat positions; also called P1-063153-5
B9: P1-064490 (41F11_VH_F27EY50EL96E) (antibody, V domains shown)
VH: B1 VH with F27E, E31D, W50E, E56S, L100E, E104Y
VL: B1 VL with D29V, G64A, T91R
notes: Kabat positions; also called P1-064490-1; P1-064490-2
B10: P1-065064 (41F11_LC_Mutant: V29D/A64G/R91T) (antibody, V domains shown)
VH: B1 VH with E31D, W50Y, E56S, E104Y
VL: B1 VL
notes: Same printed description as P1-063001 under another ID; also called P1-065064-1

Each binder was assayed against T1, monovalent hVISTA-ECD (human VISTA extracellular domain with His tail) (human, UniProt Q9H7M9 33-193) (assay: SPR, pH 6.0).
T1 construct: analyte flowed over captured antibody; also called huVISTA-His
T1 sequence (Q9H7M9 other isoform, or with tags, fused parts or gaps limits assumed): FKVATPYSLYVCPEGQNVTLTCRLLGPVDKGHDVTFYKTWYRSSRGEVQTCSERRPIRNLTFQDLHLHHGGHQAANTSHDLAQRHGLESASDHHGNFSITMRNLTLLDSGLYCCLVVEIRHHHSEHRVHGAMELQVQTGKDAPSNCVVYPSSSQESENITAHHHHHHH
Procedure: (§1) Binding of several preparations of each of the '029 progeny clones and of the parent '029 antibodies, formatted as IgG1.3 antibodies, to human VISTA at pH 6.0 and 7.4 was measured by Surface plasmon resonance (SPR). SPR analysis was performed to measure koff and KD binding affinity measurements for VISTA Abs at acidic and neutral pHs using a Biacore® T100 instrument (GE Healthcare). Protein A (ThermoFisher Scientific catalog #21181) was diluted to 20 ug/ml in 10 mM sodium acetate pH 4.5 and immobilized onto flow cells of a CM5 biosensor following the manufacturer's amine coupling protocol (GE Healthcare), targeting 2,000 RU immobilization density of Protein A per flow cell. SPR experiments were conducted at 37° C. using PBST (137 mM sodium chloride, 2.7 mM potassium chloride, 10 mM phosphate buffer, 0.05% Tween® 20) running buffer at pH 7.4 and 6.0. Antibodies were diluted to 25 nM in PBST pH 7.4, and were captured across active biosensor flow cells at 5 ul/min for 60 seconds. […] Two 15 second injections of 10 mM glycine pH 1.5 were used to regenerate the Protein A capture surface between assay cycles. Rate constants ka (kₒₙ) and kd (koff) were derived from reference flow cell and 0 nM blank-subtracted sensorgrams, and were fit to a 1:1 binding model in Biacore® T200 Evaluation Software v.2.0. The affinity constant, KD was calculated as the ratio of rate constants koff/kₒₙ for each VISTA antibody.
(§2) This initial campaign led to pH-independent VISTA.4 variants with near equivalent koff at pH 6 and pH 7. In order to obtain an antibody that binds to hVISTA with high affinity at pH 6.0 and low affinity at pH 7.0, a new library based on consensus sequence of pH-independent VISTA.4 variants was designed and constructed, with amino acid residues in the loops substituted for charge amino acid residues (see Example 9), and screened via yeast surface display (see Example 9). The library was analyzed as previously described (see Example 9) and selected variants were reformatted as IgG1.3 for further analysis (Tables 26 and 27). SPR analysis was conducted on these variants using the conditions previously described in Example 9.

Binder | Kd | koff | kon
B1 | 10 nM | 0.027 s⁻¹ | 2.7e+06 M⁻¹ s⁻¹
B2 | 1.6 nM | 0.012 s⁻¹ | 7.7e+06 M⁻¹ s⁻¹
B3 | 4.8 nM | 0.0036 s⁻¹ | 750000 M⁻¹ s⁻¹
B4 | 0.21 nM | 0.00051 s⁻¹ | 2.4e+06 M⁻¹ s⁻¹

Molecular target: T1, monovalent hVISTA-ECD (human VISTA …)
Assay: SPR, pH 6.0
Remark: another data set of the same source
Procedure: as §1

Binder | Kd | kd improvement vs parent | koff | kon
B5 | 4.7 nM | 51.4 fold | 0.0021 s⁻¹ | 450000 M⁻¹ s⁻¹
B6 | 1 nM | 81.7 fold | 0.0013 s⁻¹ | 1.3e+06 M⁻¹ s⁻¹
B7 | 0.25 nM | 136 fold | 0.00079 s⁻¹ | 3.1e+06 M⁻¹ s⁻¹
B8 | 0.13 nM | 233 fold | 0.00046 s⁻¹ | 3.6e+06 M⁻¹ s⁻¹
B1 | 6.4 nM | 3.3 fold | 0.033 s⁻¹ | 5.1e+06 M⁻¹ s⁻¹
B2 | 1.8 nM | 12.4 fold | 0.0086 s⁻¹ | 4.8e+06 M⁻¹ s⁻¹
B9 | 22 nM | 8.2 fold | 0.013 s⁻¹ | 600000 M⁻¹ s⁻¹
B3 | 2.6 nM | 35 fold | 0.0031 s⁻¹ | 1.2e+06 M⁻¹ s⁻¹
B10 | 1.1 nM | 80.5 fold | 0.0013 s⁻¹ | 1.3e+06 M⁻¹ s⁻¹
B4 | 0.12 nM | 294 fold | 0.00036 s⁻¹ | 2.9e+06 M⁻¹ s⁻¹

These binders were tested against T1, monovalent hVISTA-ECD (human VISTA …) (assay: SPR).
Procedure: as §1, with “antibody. […]” for “antibody.”

Binder | KD ratio (pH 7.4/pH 6.0)
B5 | 7.88
B3 | 33.8
B4 | 5.73

Molecular target: T1, monovalent hVISTA-ECD (human VISTA …)
Assay: SPR, pH 6.0
Remark: another data set of the same source
Procedure: as §1, with “antibody. […]” for “antibody.”

Binder | Kd | koff | kon
B5 | 3.86 nM | 0.00237 s⁻¹ | 616000 M⁻¹ s⁻¹
B6 | 0.644 nM and 0.751 nM | 0.00168 s⁻¹ and 0.00171 s⁻¹ | 2.61e+06 M⁻¹ s⁻¹ and 2.28e+06 M⁻¹ s⁻¹
B7 | 0.356 nM and 0.435 nM | 0.00124 s⁻¹ and 0.0012 s⁻¹ | 3.47e+06 M⁻¹ s⁻¹ and 2.77e+06 M⁻¹ s⁻¹
B8 | 0.139 nM and 0.223 nM | 0.00114 s⁻¹ and 0.000909 s⁻¹ | 8.19e+06 M⁻¹ s⁻¹ and 4.07e+06 M⁻¹ s⁻¹
B9 | 34.8 nM and 31.4 nM | 0.00726 s⁻¹ and 0.00818 s⁻¹ | 209000 M⁻¹ s⁻¹ and 260000 M⁻¹ s⁻¹
B3 | 2.51 nM | 0.00312 s⁻¹ | 1.24e+06 M⁻¹ s⁻¹
B4 | 0.172 nM | 0.000603 s⁻¹ | 3.52e+06 M⁻¹ s⁻¹

The binders below were run against T1, monovalent hVISTA-ECD (human VISTA …) (assay: SPR, pH 7.4).
Procedure: as §1, with “antibody. […]” for “antibody.”

Binder | Kd | koff | kon
B5 | 30.4 nM | 0.00019 s⁻¹ | 6260 M⁻¹ s⁻¹
B6 | 0.665 nM and 0.737 nM | 0.00013 s⁻¹ and 0.00012 s⁻¹ | 195000 M⁻¹ s⁻¹ and 163000 M⁻¹ s⁻¹
B7 | 0.365 nM and 0.32 nM | 0.000178 s⁻¹ and 0.000141 s⁻¹ | 488000 M⁻¹ s⁻¹ and 441000 M⁻¹ s⁻¹
B8 | 0.101 nM and 0.0675 nM | 6.9e-05 s⁻¹ and 4.05e-05 s⁻¹ | 685000 M⁻¹ s⁻¹ and 600000 M⁻¹ s⁻¹
B9 |  | 0.00266 s⁻¹ and 0.0023 s⁻¹ | 
B3 | 84.8 nM | 0.000527 s⁻¹ | 6220 M⁻¹ s⁻¹
B4 | 0.986 nM | 0.000285 s⁻¹ | 289000 M⁻¹ s⁻¹

Molecular target: T1, monovalent hVISTA-ECD (human VISTA …)
Assay: SPR
Remark: another data set of the same source
Procedure: as §1

Binder | pH 6.0/7.4 KD | pH 6.0/7.4 kd
B5 | 3.3 | 12
B6 | 2.7 | 10.2
B7 | 0.9 | 3.9
B8 | 0.8 | 3.9
B1 | 0.2 | 2.1
B2 | 0.1 | 1.2
B9 | 0.3 | 4
B3 | 0.6 | 4.8
B10 | 3 | 11.2
B4 | 0.2 | 1.1

Molecular target: T1, monovalent hVISTA-ECD (human VISTA …)
Assay: SPR, pH 7.4
Remark: another data set of the same source
Procedure: as §1

Binder | Kd | kd improvement vs parent | koff | kon
B5 | 1.4 nM | 5.1 fold | 0.00017 s⁻¹ | 120000 M⁻¹ s⁻¹
B6 | 0.38 nM | 6.8 fold | 0.00013 s⁻¹ | 340000 M⁻¹ s⁻¹
B7 | 0.27 nM | 4.3 fold | 0.0002 s⁻¹ | 770000 M⁻¹ s⁻¹
B8 | 0.15 nM | 7.4 fold | 0.00012 s⁻¹ | 780000 M⁻¹ s⁻¹
B1 | 37 nM | 0.1 fold | 0.016 s⁻¹ | 430000 M⁻¹ s⁻¹
B2 | 15 nM | 0.1 fold | 0.007 s⁻¹ | 470000 M⁻¹ s⁻¹
B9 | 75 nM | 0.3 fold | 0.0032 s⁻¹ | 43000 M⁻¹ s⁻¹
B3 | 4.1 nM | 1.4 fold | 0.00064 s⁻¹ | 150000 M⁻¹ s⁻¹
B10 | 0.36 nM | 7.4 fold | 0.00012 s⁻¹ | 330000 M⁻¹ s⁻¹
B4 | 0.76 nM | 2.7 fold | 0.00033 s⁻¹ | 440000 M⁻¹ s⁻¹

Molecular target: T1, monovalent hVISTA-ECD (human VISTA …)
Assay: SPR, pH 7.4
Remark: another data set of the same source
Procedure: as §1, §2

Binder | Kd | koff | kon
B1 | 31 nM | 0.019 s⁻¹ | 630000 M⁻¹ s⁻¹
B2 | 11 nM | 0.0078 s⁻¹ | 770000 M⁻¹ s⁻¹
B3 | 3.4 nM | 0.00039 s⁻¹ | 110000 M⁻¹ s⁻¹
B4 | 0.72 nM | 0.00032 s⁻¹ | 450000 M⁻¹ s⁻¹
